Measurements published in paper PMC11917135.
pKd: −log10 of the molar value.

Biological target: M53 protein (Streptococcus pyogenes) (UniProt P49054)
Experiment: SPR; screen: 200 nM Plg injected for 2100 s at 10 μL/min over immobilised Mrp or control M protein, 900 s dissociation; no Fg

Sequence of UniProt P49054 (P49054 30-384): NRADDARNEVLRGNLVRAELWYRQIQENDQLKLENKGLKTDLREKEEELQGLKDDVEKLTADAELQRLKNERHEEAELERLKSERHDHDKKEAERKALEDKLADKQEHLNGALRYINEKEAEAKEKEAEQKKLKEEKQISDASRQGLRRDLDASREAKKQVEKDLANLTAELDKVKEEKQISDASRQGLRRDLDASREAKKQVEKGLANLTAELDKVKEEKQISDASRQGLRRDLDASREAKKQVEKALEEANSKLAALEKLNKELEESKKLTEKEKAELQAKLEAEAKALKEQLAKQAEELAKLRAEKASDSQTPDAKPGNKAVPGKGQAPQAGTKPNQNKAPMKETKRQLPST

## human Glu-plasminogen (natural protein)
  pKd: > 7.30
